Assay: soluble on expression in E. coli; label from the status in PepcDB or PDB records

Sequence | soluble on expression in E. coli
MLSAAAFAADKVVKLPKPNLNRTGTVMKALSERQSTREYASKALTLADLSDLLWAANGINRSDAGKRTAPSAMNKQDVDVYVILSEGSYLYDAKNHQLNLIAEGDYRGAVAGGQAFVKTAPVSLVLISDVSRFGDAQKIQNQLMGAMDAGIVSQNISIFCSAAKLATVPRASMDAAQLKKVLKLKDSQIPMMNHPVGYFK | not soluble
MQSLSPTSRYLQALNEGTHQPDDVQKEAVDRLETLYQALTAKKSSATPPGGLIARLGKLLGKNEPDAQIPVRGLYMWGGVGRGKTWLMDLFYHSLPGERKLRLHFHRFMLRVHEELTALQGQIDPLDIIADRFKTETDVLCFDEFFVTDITDAMLLGGLMKALFARGITLVATSNIPPEELYRNGLQRARFLPAIDAIKQHCDIMNVDAGVDYRLRTLTQAHLWLTPLNDETRRQMDKLWLALAGAAREHAPTLEINHRPLSTLGVENQTLAVSFATLCVEARSQHDYIALSRLFHTVLLFDVPVMTPLMENEARRFIALVDEFYERHVKLVVSAAAPLYEIYQGERLKFEFQRCLSRLQEMQSAEYLKREHMPMAGDPLEHHHHHH | not soluble
MGSDKIHHHHHHMRLPQKMFKIDTYLSPGEAFHFVRKELSEASPVLEHDHDYYELFLIQQGQVYHWINGLEEMLEPGHMVFVRPSDRHALQGAPGTGAKILNVMFRTQTAAHLVTRYADVFGGRFFWQPGPLPVTLRLHGPQRERAINSMLTLDTSFRNLARIELFLLSVMTHVLDTGEIVDGRAPGWLLQACHAAREPRVFRQGADGFLHAAGRSQAHVCRQARRYLGLSPTQYVNRIRIQHAAMLLAGTERGLPDIAADCGFENLSYFHRLFREQYGTTPRGYRHRHVRPIAPL | not soluble
MEDPQSKEPAGEAVALALLESPRPEGGEEPPRPSPEETQQCKFDGQETKGSKFITSSASDFSDPVYKEIAITNGCINRMSKEELRAKLSEFKLETRGVKDVLKKRLKNYYKKQKLMLKESNFADSYYDYICIIDFEATCEEGNPPEFVHEIIEFPVVLLNTHTLEIEDTFQQYVRPEINTQLSDFCISLTGITQDQVDRADTFPQVLKKVIDLMKLKELGTKYKYSLLTDGSWDMSKFLNIQCQLSRLKYPPFAKKWINIRKSYGNFYKVPRSQTKLTIMLEKLGMDYDGRPHCGLDDSKNIARIAVRMLQDGCELRINEKMHAGQLMSVSSSLPIEGTPPPQMPHFRK | soluble
MSLTHPDFTILYVDNPPASTQFYKALLGVDPVESSPTFSLFVLANGMKLGLWSRHTVEPKASVTGGGGELAFRVENDAQVDETFAGWKASGVAMLQQPAKMEFGYTFTAADPDSHRLRVYAFAGEGHHHHHH | not soluble
MSPAQIIRTPHSFPPSFTGTSSSAENSHAQSPQQVLTRAFVASGELNAAFGRTSTASEQDFTSLLGTLQRELERKTLSFPDIAELANQLAEAAKGDQGGHWLGRDEQQTLKGMIDRCKSQLAHTHASDASYDPLAQVCENLKTARLHQSISQMTGEAHAKVRGVPDLLALIQLDPDVLAEKPVGMTSYVNFGSFICMAKARTAELSEDLRSDPNEVALLLHPHADTILELERLPDALAALTENCPDTPTRDDLRSLAKETGELLQQLRANDLLPRSEEVSSYQGETSVRSREVVEPKLTLCQAGGNGQGQLEASSARPESLRYAPTRAASSGSEARVPGQAVGGKIADDAQKVAGLYAEKKRTNWTQANGVAGKISHKIQSLLGMRDAGSRVQAFVAFMADGKGRPGATMLDLGDGWMRATRVIKGEAALIDFQCDSDGKVVDARHPGRFPVLPQGNEREAFKTVLQELKFRGAETLSKVPVYYVNRNTRGYVIPTHGYVVAGHPNRGRKSGAVLYGVGGDPKRGPVALDEKLLGHLVGRSDSKTSSKLSAPVKAAISALAGASFATREDFYDAYCAVRGDAVDPLERHNEISSIYRLLPLSTMEMWPKKADDYRVARPA | not soluble
FLDKPTLLSPEELKAASRGNGEYALYYEGRNGWWQYDERTSRELEDAFSKGKRTSEMLIAGFLYVADLENMGQYRRNEHGRRRKIKRDIIDIPKKGV | soluble
GGGGSSGGSTGGGSGSGPVTIEIGSKGEELAFDKTELTVSAGQTVTIRFKNNSAVQQHNWILVKGGEAEAANIANAGLSAGPAANYLPADKSNIIAESPLANGNETVEVTFTAPAAGTYLYICTVPGHYPLMQGKLVVN | soluble
MNRLPNIAKPPQKSNQRKEKAPPEVPALIADKDRGTYYEKGRFLGKGGFAHCYELTNRATREVVAGKVVPKSMLVKQYQRDKMTQEVQIHRELGHINIVKLFNFFEDNLNVYITLELCARRSLMELHKRRKAVTEPEARYFTHQIVDGVLYLHDLNIIHRDMKLGNLFLNDDLVVKIGDFGLATTVNGDERKKTLCGTPNYIAPEVLNKAGHSFEVDIWAVGCILYILLFGQPPFESKSLEETYSRIRHNNYTIPSIATQPAASLIRKMLDPEPTRRPTAKQVQRDGFFKSGFMPTRLPVSCLTMVPKFGGHETSMMEENVAPRGVDARSQRPLNGRAGLSALPQHIVSNNADRERAQQQAAEATFREPEDAYLSQLFHQVAVLLEQRIPGLEEEEAALDGYQSPECLPVFWISKWVDYSDKYGIGYQLCDNSVGVLFNDNSRIMLDQAGNELTYIEKSNKEHYFSMHSGEMPGLLNKKVTLLKYFRSYMNDHLVKAGEGSEQRAGDDLARLPTLRVWFRTKSAIVLHLSNGTVQINFFNDHVKMMMCPLMQAVTFIDQNKRMLTYKLNNLQRNGCPEKFLHRLKYAKTMIERLMSDANVVSQNPARQPDMPRSMAAARSASAGSRGPNQAASHLPQSASGSNIHPRR | not soluble
MHHHHHHSSGVDLGTENLYFQSMAARVLIIGSGGREHTLAWKLAQSHHVKQVLVAPGNAGTACSEKISNTAISISDHTALAQFCKEKKIEFVVVGPEAPLAAGIVGNLRSAGVQCFGPTAEAAQLESSKRFAKEFMDRHGIPTAQWKAFTKPEEACSFILSADFPALVVKASGLAAGKGVIVAKSKEEACKAVQEIMQEKAFGAAGETIVIEELLDGEEVSCLCFTDGKTVAPMPPAQDHKRLLEGDGGPNTGGMGAYCPAPQVSNDLLLKIKDTVLQRTVDGMQQEGTPYTGILYAGIMLTKNGPKVLEFNCRFGDPECQVILPLLKSDLYEVIQSTLDGLLCTSLPVWLENHTALTVVMASKGYPGDYTKGVEITGFPEAQALGLEVFHAGTALKNGKVVTHGGRVLAVTAIRENLISALEEAKKGLAAIKFEGAIYRKDIGFRAIAFLQ | soluble
MSLDFAARQAAFADALLHPDRPVPDGVINARGEPDAARFAVYRNNVFVGLTKALAQRFPVTERLVGSEFFAAMARAYVQDHKPASPLIMEYGDDFPDFVAAFEPAGTLVYLPDVARLEAAWTEAYHAADSAPLDLAAFGAVAPEMLSDLRLLPHPSARLILSNFPVGSIWSAHQEAVVSPVSDWGGQAVLVVRPEMSVNVHVLPPRDAVFAAALFNAATLGEAAEAAFAAAPEFDFGTALVGLAGIGAFRAFQQYKGNEGHHHHHH | not soluble
VRSTPPASAGRSTPPALAGHSTPPALAGHSTLCGRPVAGDRALIMAIVNRTPDSFYDKGATFSDAAARDAVHRAVADGADVIDVGGVKAGPGERVDVDTEITRLVPFIEWLRGAYPDQLISVDTWRAQVAKAACAAGADLINDTWGGVDPAMPEVAAEFGAGLVCAHTGGALPRTRPFRVSYGTTTRGVVDAVISQVTAAAERAVAAGVAREKVLIDPAHDFGKNTFHGLLLLRHVADLVMTGWPVLMALSNKDVVGETLGVDLTERLEGTLAATALAAAAGARMFRVHEVAATRRVLEMVASIQGVRPPTRTVRGLA | soluble
MQHYLLDSNQRLNVSFSKDSVAAYYQCFNQPYRKEVPPLMCASLWPKFDLFKKYANSELILTKSAINQTQKIEVDTIYVGHLEDIECRQTRNITRYTMALTLTKNDQHVITVTQTFIKAMKLEHHHHHH | soluble
MGLKAINTSLSKNDLAHLGAGEVGYIRKMRSEEVSRCFPEAPEMGPGIDLWALFGADGTPILLTDNRSSTFFKAAEDDLRTVSLH | not soluble
MGSDKIHHHHHHQDGNQPALVDALVVNARTPGPAWWSVSKGDKKVWVLGIGAPVPADAKWDGRAFERRVKASRQLILVPPSKTRFEKNTIKADRKWLDELTEAERARLAEVATQTGRKLEFYTLFRPNFAGLLINSELQARAKPKMGKLLDLSVRARRLGARLVPAGGLDAQAMKASFQVGGKDSLICLRWAMRPRDAAALREQRAQAWMRGDVRTLLVGPAAYDPCVQAMAAMQASLENNEGALANTIAATLDRGDGAVALVGLVPLLREGGVLDQLRKRGYLIETPAQMDDED | not soluble
MIKLVRIDYRLLHGQVVFAWTRALDIDHIIVANANAAGDAFVSMSLSLAKPAGVSLDIITVEQAAEKLASGKLDHKKVMVVLGNTAETLAFVEKVPGISVINYGGIAQKEGAQQFGKAIYLTEQEIADSQALKAKGIRLEMRQVPAHSAELLNDKL | not soluble
MLQVRVKPGVEDRIRGFFPWVYRSEIASFSRKPKKGEIVVVRDVNGKFLGYGYINPEVNIAIRILSFDKNEPVTPELIRKRIKQAYEYRKRLYINSNAYRLVHSEGDLLPGLIVDVYGSYLAVEFTTYGMNQFREVILDTLVELLRPKGIYEKVNEIAKRVEGLDVEERVIYGEVPEEVIIWEHDLKYYINIPQGQKTGFFLDQRNARKFVRNLVEPGDRCLDVFCHTGGFALNMKRAGAGEVIGVDISELALKEAEKNARLNGFTDIKWVKANAFDYLRELDKKGEKFDVIIIDPPSFAKNRAAVPNALRGYKELCVRGLKIAKSGGYLAIFSCSFHITEQHLLDVLLQASYDVRRQVRVIAKTFQDLDHPWILQMPNTLYLKGVWVEVV | soluble
MFYKEENFKKTEIGEIPEDWEIVELKDVCKKIKAGGTPKTSVEEYYKNGTIPFVKIEDITNSNKYLTNTKIKITEEGLNNSNAWIVPKNSVLFAMYGSIGETAINKIEVATNQAILGIIPKDNILESEFLYYILAKNKNYYSKLGMQTTQKNLNAQIVKSFKIPLPPLEEQKQIAKILTKIDEGIEIIEKSINKLERIKKGLMHKLLTKGIGHSRFKKSEIGEIPEDWEVFEIKDIFEVKTGTTPSTKKSEYWENGEINWITPLDLSRLNEKIYIGSSERKVTKIALEKCNLNLIPKGSIIISTRAPVGYVAVLTVESTFNQGCKGLFQKNNDSVNTEFYAYYLKFKKNLLENLSGGSTFKELSKSMLENFKIPLPPLEEQKQIAKILSSVDKSIELKKQKKEKLQRMKKKIMELLLTGKVRVKT | soluble
MGNTSSERSGGEKTHRRESRSGKDGTRPKILMDSAEDGDLFQSDDAKEFLAWRQDQESDSKTPLEERPTVFRWKGPGKEIYLSGSFNNWATKIPLNKSHNNFVAIIDLPEGEHQYKFYVDGHWTLDPKEPVVTNKSGVVNNVIKVRKTDFEVFDALKTDSEKCADMSDLSSSPPGPYHQDPYSTKSEDKLRSPPILPPHLLQVLLNKDTGISCDPTLLPEPNHVMLNHLYALSIKDGVMVLSATHRYKKKYVTTLLYKPI | not soluble
MANSAGSMIKEFCAENFTKIPQAIQKGANRIELCDNLAVGGTTPSTGVIEEVLAYAGEHSVPVMTIIRPRGGNFVYNDIELKIMHTDLIEAKKLGTDGIVIGCLTEDGWLDEEALDLFIETAEGLQITFHMAFDALSKENQFKAIDWLAERGVTRILTHGGPAGTPIEDNFDHLKELIVYADQRILILPGGGISTENVQTVMDTLKVTEVHGTKIVLEHHHHHH | not soluble

Source: the DeepSol protein solubility set
